Source: publication PMC6755802

Target: IL-2 binary complex stapler scFv, recombinantly expressed (human)
Experiment: SPR; biotinylated scFv immobilised on Biacore SA chip at low density; analytes flowed 60 s; complexes pre-incubated 30 min at room temperature; 25 °C; HBS-P+ with 0.2% BSA; KD from equilibrium titration, 1:1 model; in Fig. 1D all proteins at 60 μM

Kd: 210 nM
Substance: Super-2/IL-2Rβ binary complex (from UniProt P60568 21-153; P14784 27-240)
